From patent publication US20200239579A1 (Genmab, published 2020) come the findings set out here.

A word on the Kd: it is a measure of binding affinity in units of concentration. The term koff denotes a measure of how fast the partners let go of each other. What is called kon is the rate constant with which the complex forms. One may read the EC50 (read off the curve) as the concentration giving half of the maximal effect.

The target of assay [1] is T1, cynomolgus PD-L1/137-H1 protein (Acro Biosystems, cat. No. PD1-052H4-100) (cynomolgus, UniProt G7PSE7 19-239).
T1 construct: also called cynomolgus PD-L1 (BLI)
T1 sequence (G7PSE7 entry or part of it): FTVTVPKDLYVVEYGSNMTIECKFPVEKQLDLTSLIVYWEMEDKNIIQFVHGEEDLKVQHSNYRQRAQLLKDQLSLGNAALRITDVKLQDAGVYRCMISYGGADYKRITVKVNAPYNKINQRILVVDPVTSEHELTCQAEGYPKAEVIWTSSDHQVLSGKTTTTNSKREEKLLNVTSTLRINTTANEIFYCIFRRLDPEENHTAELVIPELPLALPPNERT
The experiment in a line: BLI (Octet HTX), average of 3 experiments. The protocol:
(§1) In a first set of experiments, affinities for recombinant-expressed human PD-L1 protein were determined using Bio-layer interferometry (BLI) on an Octet HTX instrument (ForteBio). Anti-Human IgG Fc Capture (AHC) biosensors (ForteBio) were loaded for 900 s with antibodies (1 μg/ml). […] The experiment was carried out while shaking at 1000 rpm at 30° C. Data was analyzed with Data Analysis Software v9.0.0.12 (ForteBio) using the 1:1 model and a global full fit with 1000 s association time and 200 or 1000 s dissociation time. Data traces were corrected by subtraction of a buffer reference, the Y-axis was aligned to the last 10 s of the baseline, and interstep correction as well as Savitzky-Golay filtering was applied. Data traces with a response <0.05 nm were excluded from analysis. As default, the fit using 1000 s dissociation time was used.
The experimental set-up was as described above, with the exception of [0466] Loading time of AHC biosensors with antibodies was 600 s; [0467] Baseline was 300 s; [0468]

Assay [2] concerns the target T2, human PD-L2 (full length, on CHO cells) (human, UniProt Q9BQ51 20-273).
T2 construct: whole, on cells; also called CHO-PD-L2 cells
T2 sequence (looked up): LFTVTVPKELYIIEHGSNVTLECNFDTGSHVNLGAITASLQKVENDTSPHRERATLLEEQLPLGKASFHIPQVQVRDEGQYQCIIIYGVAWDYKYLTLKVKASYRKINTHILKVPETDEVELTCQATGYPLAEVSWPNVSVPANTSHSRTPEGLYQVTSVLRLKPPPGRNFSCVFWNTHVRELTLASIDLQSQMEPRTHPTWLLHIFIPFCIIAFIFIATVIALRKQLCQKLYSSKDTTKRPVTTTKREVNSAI
The experiment in a line: flow cytometry on CHO cells expressing human PD-L2. On the procedure: (§2) Cells (3-5×10⁴ cells/well) were incubated in polystyrene 96-well round-bottom plates (Greiner bio-one, cat. no. 650101) with serial dilutions of antibodies (range 0.0001 to 10 μg/mL in 5-fold dilution steps) in 50 μL PBS/0.1% BSA/0.02% azide (staining buffer) at 4° C. for 30 min.
(§3) After washing twice in staining buffer, cells were incubated in 50 μL secondary antibody at 4° C. for 30 min. As a secondary antibody, R-Phycoerythrin (PE)-conjugated goat-anti-human IgG F(ab′)₂ (Cat. no. 109-116-098, Jackson ImmunoResearch Laboratories, Inc., West Grove, Pa.) diluted 1:500 in staining buffer, was used for all experiments. Next, cells were washed twice in staining buffer, re-suspended in 20 μL staining buffer and analyzed on an iQue screener (Intellicyt Corporation, USA). Binding curves were analyzed using non-linear regression (sigmoidal dose-response with variable slope) using GraphPad Prism V75.04 software (GraphPad Software, San Diego, Calif., USA).
A PE-conjugated PD-L2 specific antibody (Mylteni, clone MIH18; cat. no. 130-098-651) was used as positive control.
For orientation: Flow cytometry measures light scatter and fluorescence of single cells or particles in a stream.

The target in assay [3] is T3, PDLoneECDHisCtag (human, UniProt Q9NZQ7 19-238).
T3 construct: Expressed in HEK-293F cells; theoretical molecular weight 29 kDa; also called recombinant human PD-L1 ECD; human PD-L1 (BLI); not shown: C-terminal His-tag; C-tag
T3 sequence (Q9NZQ7 19-238, form in doubt): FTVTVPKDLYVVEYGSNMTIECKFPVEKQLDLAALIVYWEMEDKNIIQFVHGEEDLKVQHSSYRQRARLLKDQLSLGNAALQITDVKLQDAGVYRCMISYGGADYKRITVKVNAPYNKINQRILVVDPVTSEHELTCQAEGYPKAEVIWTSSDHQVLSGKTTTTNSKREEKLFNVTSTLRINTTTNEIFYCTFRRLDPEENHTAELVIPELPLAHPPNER
The experiment in a line: BLI cross-block, second antibody on PDLoneECDHisCtag held by immobilised 547; bold = blocking. The protocol: (§4) Antibody cross-block testing was performed using biolayer interferometry (BLI) on an Octet HTX instrument (ForteBio). Antibodies (20 μg/ml in 10 mM sodium acetate buffer pH 6.0 (ForteBio)) were immobilized on Amine-Reactive 2nd Generation (AR2G) biosensors (ForteBio) according to the instructions of the manufacturer. After a baseline (50 s) in Sample Diluent (ForteBio), biosensors containing immobilized antibodies were loaded for 500 s with PDLoneECDHisCtag (100 nM or 2.7 μg/ml), after which the association response of a second antibody (10 μg/ml) was followed for 500 s. Biosensors were regenerated by using 3 times 5 s alternating exposures to 10 mM glycine pH 2.5 and Sample Diluent. The experiment was repeated with a new set of second antibodies starting from the baseline step. Each biosensor was used 6 times. The experiment was performed at 30° C. using a shaker speed of 1000 rpm. Data was analyzed using Data Analysis Software v9.0.0.12 (ForteBio). The Y-axis was aligned to the association step and Savitzky-Golay filtering was applied. The average buffer response was subtracted from the association response of the second antibody in order to correct for the dissociation of PDLoneECDHisCtag from the immobilized antibody. The corrected association responses were plotted in a matrix format.

Assay [4] addresses T3, PDLoneECDHisCtag. The experiment in a line: BLI (Octet HTX); antibody on anti-human IgG Fc capture sensor, PDLoneECDHisCtag as analyte; 1:1 global fit. The protocol: as §1
For orientation: In BLI a coated tip is dipped into the sample, and binding shifts an interference pattern.

Assay [5] has as its target T3, PDLoneECDHisCtag. The experiment in a line: BLI cross-block, second antibody on PDLoneECDHisCtag held by immobilised MPDL; bold = blocking. The protocol: as §4
The target in assay [6] is T3, PDLoneECDHisCtag. The experiment in a line: BLI cross-block, second antibody on PDLoneECDHisCtag held by immobilised 632; plain = non-blocking. The protocol:
as §4

Assay [7] deals with T3, PDLoneECDHisCtag. The experiment in a line: BLI cross-block, second antibody on PDLoneECDHisCtag held by immobilised 421-LC91S; bold = blocking. The protocol:
as §4

Assay [8] deals with T4, cynomolgus monkey PD-L1 (full length, on CHO cells) (cynomolgus monkey (Macaca fascicularis), UniProt G7PSE7 19-290).
T4 construct: whole, on cells; also called PDL1 Mf; cynomolgus PD-L1
T4 sequence (G7PSE7 entry or part of it): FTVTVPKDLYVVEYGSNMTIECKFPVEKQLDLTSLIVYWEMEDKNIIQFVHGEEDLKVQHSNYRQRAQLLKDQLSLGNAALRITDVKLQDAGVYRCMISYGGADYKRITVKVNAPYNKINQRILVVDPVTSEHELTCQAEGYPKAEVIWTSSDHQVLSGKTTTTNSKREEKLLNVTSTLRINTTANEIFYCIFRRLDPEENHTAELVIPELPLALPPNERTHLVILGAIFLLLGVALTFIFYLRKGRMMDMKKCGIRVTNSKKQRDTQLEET
The experiment in a line: flow cytometry on CHO cells transfected with cynomolgus PD-L1, PE anti-human IgG secondary, MFI (PE). The protocol:
as §2, §3
Binding to CHO cells expressing cynomolgus PD-L1 was determined by flow cytometry using a method as described above.

In assay [9] the target is T3, PDLoneECDHisCtag. The experiment in a line: BLI cross-block, second antibody on PDLoneECDHisCtag held by immobilised 511-LC33S; bold = blocking. On the procedure: as §4

B1: IgG1-547-FEAR (antibody, V domains shown)
VH: EVQLLEPGGGLVQPGGSLRLSCEASGSTFSTYAMSWVRQAPGKGLEWVSGFSGSGGFTFYADSVRGRFTISRDSSKNTLFLQMSSLRAEDTAVYYCAIPARGYNYGSFQHWGQGTLVTVSS
VL: SYVLTQPPSVSVAPGQTARITCGGNNIGSKSVHWYQQKPGQAPVLVVYDDNDRPSGLPERFSGSNSGNTATLTISRVEAGDEADYYCQVWDSSSDHVVFGGGTKLTVLG
For B1, the “Fold difference of KD (cynomolgus against human PD-L1)” value (“Fold difference of KD” for short) in assay [1] was 2.3 fold. The binding result in assay [2] is “no binding”. The “association response of the second antibody” value (“association response” below) in assay [3] was found to be 0 nm; in [5], 0 nm; in assay [6], 0.6 nm; in assay [7] it was 0 nm. Further, the Kd in [4] was determined as 0.029 nM. For the same molecule, in assay [4], the dissociation rate constant (koff) stood at 3.6e-05 s⁻¹. Also, the kon in assay [4] was found to be 1.2e+06 M⁻¹ s⁻¹.

B2: IgG1-338-FEAR (antibody, V domains shown)
VH: EVQVVESGGGLVQPGGSLRLSCAASGFTFSRFWMSWVRQAPGKGLEWVANIKQDGGEKYYVDSVKGRFTISRDNAKNSLYLQMNSLRGEDTAVYYCARDDNWNGHFDYWGQGTLVTVSS
VL: DIQMTQSPSTLSASVGDRVTITCRASQSISSWLAWYQQKPGKAPNLLIYKASSLESGVPSRFSGSGSGTEFTLTISSLQPDDFATYYCQQYYGSYITFGQGTRLEIKR
Consider B2, for which the “Fold difference of KD” value in assay [1] came to 2.3 fold. Also, in assay [2], the binding result is “no binding”. Moreover, the “association response” value is 0 nm in assay [3]; 0 nm in assay [5]; 0 nm in [9]; 0.6 nm in [6]; -0.1 nm in assay [7]. In assay [4], this molecule registered a Kd of 0.088 nM. In assay [4], this molecule displayed a koff of 6.4e-05 s⁻¹. This molecule also came in with a kon in assay [4] of 730000 M⁻¹ s⁻¹. Besides, the concentration for a half-maximal effect (EC50 (read off the curve)) in assay [8] was about 0.07 µg/mL.

B3: IgG1-511-LC33S-FEAR (antibody, V domains shown)
VH: QVQLVQSGSELKKPGASVMVSCKASGYTFTSYVMNWVRQAPGQGLEWMGWINSYTGNPTSAQGFTGRFVFSFDTSVNTAYLQISSLKAEDTAVYYCARGYCTSTSCYLDYWGQGTLVTVSS
VL: SYELTQPPSVSVSPGHTARITCSGDALPKKYASWFQQKSGQAPVLVIYEDSKRPSGIPERFSGSTSGTMATLTISGAQVEDETDYYCYSADTSGTHRVFGGGTKLTVLG
As for B3, the “Fold difference of KD” value in assay [1] turned out to be 2.3 fold. For the same molecule, the binding result in assay [2] is recorded as “no binding”. In addition, the “association response” value in [5] and in [9] was 0 nm throughout.
